Data reported in patent US20230279104A1 (KOREA RESEARCH INSTITUTE OF BIOSCIENCE AND BIOTECHNOLOGY, published 2023).

Target: T1, human transmembrane 4 L6 family member 5 (TM4SF5) on cells (human, UniProt O14894 1-197)
T1 construct: whole, on cells; also called endogenous TM4SF5; TM4SF5 protein
T1 sequence (looked up): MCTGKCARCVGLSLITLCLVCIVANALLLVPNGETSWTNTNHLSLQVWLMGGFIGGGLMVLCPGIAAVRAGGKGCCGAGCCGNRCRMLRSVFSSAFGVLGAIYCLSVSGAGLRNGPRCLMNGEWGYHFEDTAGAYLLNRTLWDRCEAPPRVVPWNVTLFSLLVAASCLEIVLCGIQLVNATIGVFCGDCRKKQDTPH
Experiment: flow cytometry, internalization analysis on SNU449Tp cells
Experimental: Cells were transferred to ice-cold buffer to stop the occurrence of internalization and stained with FITC-conjugated anti-human IgG. PI⁻ cells were analyzed by flow cytometry.

binding result: binds
B1: humanized monoclonal antibody Ab27-hz9 (scFv-hFc form) (antibody, V domains shown)
VH: QVQLVQSGAEVKKPGASVKVSCKASGYTFTDYEMHWVRQAPGQGLEWMGAIDPETGGTAYNQKFKGRVTMTADKSISTAYMELSRLRSDDTAVYYCARPYLGYWGQGTLVTVSS
VL: EIVLTQSPGTLSLSPGERATLSCRSSQSLVHSNGNTYLHWYQQKPGQAPRLLIYKVSNRFSGIPDRFSGSGSGTDFTLTISRLEPEDFAVYYCFQGSHIPLTFGQGTKVEIK
notes: VH and VK genes were synthesized in scFv format and inserted into the pDR-OriP-Fc1 vector, so the molecule tested is an scFv-human Fc fusion; Frameworks are IGHV1-2 and IGKV3-20 with murine residues kept at H71 and H73; also called humanized Ab27
